Assay results published in US20220016205A1, “METHODS OF OVERCOMING RESISTANCE TO IMMUNE CHECKPOINT INHIBITORS” (Board of Regents, The University of Texas System, priority 2018, published 2022).

Columns and labels:
[1] = tested on: 344SQR tumors; assay: Tumor growth and survival of mice with anti-PD1-resistant 344SQR tumors treated with follistatin, anti-PD1 or both; type: in vivo, 129Sv/Ev mice; details: follistatin 0.1 mg/kg i.p. (with or without anti-PD1 10 mg/kg), 2 weeks
Procedure: In vivo studies. All mouse studies were approved by the Institutional Animal Care and Use Committee (IACUC) of The University of Texas MD Anderson Cancer Center before their initiation; animal care was provided according to IACUC standards, and all mice had been bred and were maintained in our own specific pathogen-free mouse colony. For RRBS, RPPA and TILs studies, primary tumors were established by subcutaneous injection of 344SQP or 344SQR cells (0.5×10^6 in 100 μL of sterile phosphate buffered saline [PBS]) into the leg of syngeneic 129Sv/Ev mice (female, 12-16 weeks old). Mice were then given intraperitoneal injections of anti-PD1 or control IgG antibodies (10 mg/kg) (Bio X cell), starting on day 4 after tumor cell inoculation and continuing twice per week for a total of 4 doses. At 24 hours after the last anti-PD1 treatment, tumor tissues were collected for DNA (2 mice/group) and protein isolation (2 or 3 mice/group). For TILs isolation, tumor tissues (3 mice/group) were collected a week after the last treatment with anti-PD1. […] Tumors were measured with calipers three times per week and recorded as tumor volume (in mm^3)=width^2×length/2. […] Mouse survival rates were analyzed by using the Kaplan-Meier method and compared with log-rank tests.

[2] = tested on: CD4^+ T cells; assay: qPCR of p38α, IFN-γ, IL-2 in activated CD4+ T cells treated with BMP7 or BMP7 plus follistatin; type: cell-based, mouse; details: BMP7 plus follistatin compared with BMP7 only, 24 hours (FIG. 4F)
Text: (§1) Quantitative polymerase chain reaction (qPCR). Total RNA was isolated from cells and tumors with Triazol (Life Technologies) according to the manufacturer's protocol. For studies of BMP7, p38α, IL-1α, IL-1β, TNF-α, RANTES, IL-2, and IFN-γ expression, mRNA was retrotranscribed with the iScript™ gDNA Clear cDNA Synthesis Kit (BioRad) and analyzed by qPCR using SYBR Green (Life Technologies) with specific primers according to the manufacturer's protocol. The comparative Ct method was used to calculate the relative abundance of mRNAs compared with ACTB (beta-actin) expression for cancer cells or CD45 expression for immune cells.
(§2) Co-culture experiments and treatments. Viable cells were counted with a hemocytometer (0.4% Trypan blue solution) and diluted to 40,000 cells per well in 24-wells plates. Cells from 344SQP, 344SQR, 344SQ ctrl, or 344SQ-shBMP7 tumors were seeded at the top inserts (24-mm Transwell with 0.4-μm pore polycarbonate membrane insert, Sigma-Aldrich), and RAW 264.7 or CD4^+ T cells were seeded at the bottom of the transwell system. CD4^+ T cells were isolated from splenocytes by using Dynabeads Untouched Mouse CD4 Cells Kit (Thermo Fisher Scientific—Life Technologies, Catalog #11416D) and activated with LEAF purified anti-mouse CD3c antibody (5 μg/mL) and LEAF purified anti-mouse CD28 antibody (1 μg/mL) (Biolegend). […] RNA was then isolated from RAW 264.7 or CD4^+ T cells and analyzed for p38α, IL-1α, IL-1β, TNF-α, RANTES, IL-2 and IFN-γ expression with qPCR.
(§3) Next, CD4^+ T cells were co-cultured with 344SQP or 344SQR cells, and 344SQR ctrl or 344SQR shBMP7 cells, and the expression of p38α, IFN-γ, and IL-2 analyzed. […] To confirm that these findings depended on BMP7 and not on some other secreted molecule, CD4^+ T cells were treated with BMP7 with or without follistatin and p38α, IFN-γ, and IL-2 expression evaluated. […]

[3] = tested on: CD4^+ T cells; assay: qPCR of p38α, IFN-γ, IL-2 in CD4+ T cells co-cultured with 344SQR cells plus follistatin; type: cell-based, mouse; details: 344SQR co-culture plus follistatin versus 344SQR without follistatin, 24 hours (FIG. 4G)
Text: as §1
Co-culture experiments and treatments. Viable cells were counted with a hemocytometer (0.4% Trypan blue solution) and diluted to 40,000 cells per well in 24-wells plates. […] RNA was then isolated from RAW 264.7 or CD4^+ T cells and analyzed for p38α, IL-1α, IL-1β, TNF-α, RANTES, IL-2 and IFN-γ expression with qPCR.
as §3

[4] = tested on: RAW 264.7 cells; assay: qPCR of p38α, IL-1α, IL-1β, TNF-α, RANTES in RAW 264.7 cells treated with BMP7 or BMP7 plus follistatin; type: cell-based, murine; details: BMP7 plus follistatin versus BMP7 only, 24 or 48 hours (FIG. 3H)
Text: as §1
as §2, with “system.” for “system. CD4^+ T cells were isolated from splenocytes by using Dynabeads Untouched Mouse CD4 Cells Kit (Thermo Fisher Scientific—Life Technologies, Catalog #11416D) and activated with LEAF purified anti-mouse CD3c antibody (5 μg/mL) and LEAF purified anti-mouse CD28 antibody (1 μg/mL) (Biolegend).”

[5] = tested on: peritoneal macrophages; assay: qPCR of p38α, IL-1α, IL-1β, TNF-α, RANTES in peritoneal macrophages treated with BMP7 or BMP7 plus follistatin; type: cell-based, mouse; details: BMP7 plus follistatin compared with BMP7 only
Text: as §1
as §2, with “system.” for “system. CD4^+ T cells were isolated from splenocytes by using Dynabeads Untouched Mouse CD4 Cells Kit (Thermo Fisher Scientific—Life Technologies, Catalog #11416D) and activated with LEAF purified anti-mouse CD3c antibody (5 μg/mL) and LEAF purified anti-mouse CD28 antibody (1 μg/mL) (Biolegend).”

B1: follistatin: BMP7 antagonist protein, natural inhibitor of BMP7 (R&D Systems, Catalog #769-FS-025) (protein, UniProt P19883 30-344, looked up)
Follistatin: GNCWLRQAKNGRCQVLYKTELSKEECCSTGRLSTSWTEEDVNDNTLFKWMIFNGGAPNCIPCKETCENVDCGPGKKCRMNKKNKPRCVCAPDCSNITWKGPVCGLDGKTYRNECALLKARCKEQPELEVQYQGRCKKTCRDVFCPGSSTCVVDQTNNAYCVTCNRICPEPASSEQYLCGNDGVTYSSACHLRKATCLLGRSIGLAYEGKCIKAKSCEDIQCTGGKKCLWDFKVGRGRCSLCDELCPDSKSDEPVCASDNATYASECAMKEAACSSGVLLEVKHSGSCNSISEDTEEEEEDEDQDYSFPISSILEW
[1]; compared with anti-PD1 therapy only (FIG. 5C)
  tumor growth: decreased tumor growth
[1]; compared with anti-PD1 therapy only, Kaplan-Meier (FIG. 5C)
  survival: extended survival
[2]
  expression of p38α, IFN-γ, and IL-2: higher expression
[3]
  expression of p38α, IFN-γ, and IL-2: higher expression
[4]
  expression of p38a and p38α-regulated cytokines and chemokines: higher expression
[5]
  levels of p38α, IL-1α, TNF-α, IL-1β, and RANTES: higher levels
